In patent US20060029947A1 (University of Texas, published 2006) one finds Kd, koff and kon data, which are given here for 1 molecule.

Usually Kd stands for the concentration at which binding is half-saturated. What is called koff is a measure of how fast the partners let go of each other. Low readings indicate a long-lived complex, high ones a short-lived complex. As a reminder, the kon is the second-order rate constant of association. A higher kon goes with fast association.

In this test the target is Bacillus anthracis protective antigen (PA) (Bacillus anthracis, UniProt P13423 30-764).
Bacillus anthracis protective antigen (PA), sequence (P13423 30-764 limits assumed): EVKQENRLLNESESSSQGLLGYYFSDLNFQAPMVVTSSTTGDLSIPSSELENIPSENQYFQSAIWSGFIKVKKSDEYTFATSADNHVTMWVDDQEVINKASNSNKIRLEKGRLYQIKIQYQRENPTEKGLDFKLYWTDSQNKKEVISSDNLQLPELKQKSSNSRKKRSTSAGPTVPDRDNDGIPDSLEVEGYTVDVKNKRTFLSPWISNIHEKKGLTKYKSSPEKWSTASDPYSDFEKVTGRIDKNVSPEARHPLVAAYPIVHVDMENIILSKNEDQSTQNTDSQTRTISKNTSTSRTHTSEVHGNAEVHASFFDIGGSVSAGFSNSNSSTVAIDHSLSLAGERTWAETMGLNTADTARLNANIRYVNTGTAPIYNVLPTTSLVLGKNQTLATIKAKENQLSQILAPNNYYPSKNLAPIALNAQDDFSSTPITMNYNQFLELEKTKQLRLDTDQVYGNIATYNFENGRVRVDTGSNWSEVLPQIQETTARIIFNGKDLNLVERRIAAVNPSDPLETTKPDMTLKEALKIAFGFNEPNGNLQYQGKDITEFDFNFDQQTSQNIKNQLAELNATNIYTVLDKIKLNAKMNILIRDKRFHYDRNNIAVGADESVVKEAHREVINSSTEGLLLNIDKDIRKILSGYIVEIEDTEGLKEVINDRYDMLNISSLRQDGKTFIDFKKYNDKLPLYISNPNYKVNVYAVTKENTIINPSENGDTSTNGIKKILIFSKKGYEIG

B1: M18 with the Q55L substitution, scAb (scFv)
chain: DIQMTQTTSSLSASLGDRVTVSCRASQDIRNYLNWYQQKPDGTVKFLIYYTSRLLPGVPSRFSGSGSGTDYSLTINNLEQEDIGTYFCQQGNTPPWTFGGGTKLEIKRGGGGSDGGGSGGGGSGGGGSEVQLQQSGPELVKPGASVKISCKDSGYAFNSSWMNWVKQRPGQGLEWIGRIYPGDGDSNYNGKFEGKAILTADKSSSTAYMQLSSLTSVDSAVYFCARSGLLRYAMDYWGQGTSVTVSS
B1: the affinity, expressed as Kd, was 0.021 nM; the off-rate constant (koff) was 2.4e-05 s⁻¹; the kon came to 1.1e+06 M⁻¹ s⁻¹.
